In patent US20160237156A1:

Experiments:
[1] = molecular target: SNAP-tag-CXCR4 (Tag-lite labeled CXCR4 cells, Cisbio Bioassays) (UniProt P61073); experiment: Tag-lite HTRF competition with 50 nM fluorescent SDF-1 on Tag-lite labeled CXCR4 cells
[2] = molecular target: SNAP-tag-CXCR4 (Tag-lite labeled CXCR4 cells, Cisbio Bioassays) (UniProt P61073); experiment: Tag-lite HTRF competition with 50 nM fluorescent SDF-1, Cheng-Prusoff
CXCR4 (human) = CXCR4 (human) (UniProt P61073); experiment: cell-based or functional assay
Chain of CXCR4 (human) (P61073 whole entry): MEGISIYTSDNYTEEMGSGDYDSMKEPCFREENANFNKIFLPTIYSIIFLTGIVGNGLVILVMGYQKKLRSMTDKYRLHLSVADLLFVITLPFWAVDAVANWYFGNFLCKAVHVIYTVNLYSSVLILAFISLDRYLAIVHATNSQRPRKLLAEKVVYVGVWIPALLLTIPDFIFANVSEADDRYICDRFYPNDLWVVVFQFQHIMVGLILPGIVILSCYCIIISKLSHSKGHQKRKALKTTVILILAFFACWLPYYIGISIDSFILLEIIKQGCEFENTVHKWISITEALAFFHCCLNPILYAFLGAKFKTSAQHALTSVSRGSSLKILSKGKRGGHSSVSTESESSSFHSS

Chain of SNAP-tag-CXCR4 (Tag-lite labeled CXCR4 cells, Cisbio Bioassays) (P61073 whole entry): as above

For “mouse anti-human CXCR4 monoclonal antibody (Clone 12G5, R&D system)”, the IC50 [1] was 4.4 nM, the Ki [2] was 0.97 nM and the inhibition of SDF-1 induced migration of Ramos cells, EC50 (CXCR4 (human)) was 2.1 nM.
